Test results published in patent US20030087827A1.
Non-standard residues stand in square brackets, D forms with d.

B1: Ac-wrrrrr-NH2 (peptide)
peptide: Ac-[dW][dR][dR][dR][dR][dR]-NH2
SMILES: CC(=O)N[C@H](Cc1c[nH]c2ccccc12)C(=O)N[C@H](CCCNC(=N)N)C(=O)N[C@H](CCCNC(=N)N)C(=O)N[C@H](CCCNC(=N)N)C(=O)N[C@H](CCCNC(=N)N)C(=O)N[C@H](CCCNC(=N)N)C(N)=O
B2: Ac-wrrril-NH2 (peptide)
peptide: Ac-[dW][dR][dR][dR][dI][dL]-NH2
SMILES: CC[C@@H](C)[C@@H](NC(=O)[C@@H](CCCNC(=N)N)NC(=O)[C@@H](CCCNC(=N)N)NC(=O)[C@@H](CCCNC(=N)N)NC(=O)[C@@H](Cc1c[nH]c2ccccc12)NC(C)=O)C(=O)N[C@H](CC(C)C)C(N)=O
B3: Ac-wrrrrl-NH2 (peptide)
peptide: Ac-[dW][dR][dR][dR][dR][dL]-NH2
SMILES: CC(=O)N[C@H](Cc1c[nH]c2ccccc12)C(=O)N[C@H](CCCNC(=N)N)C(=O)N[C@H](CCCNC(=N)N)C(=O)N[C@H](CCCNC(=N)N)C(=O)N[C@H](CCCNC(=N)N)C(=O)N[C@H](CC(C)C)C(N)=O
B4: Ac-wrrrir-NH2 (peptide)
peptide: Ac-[dW][dR][dR][dR][dI][dR]-NH2
SMILES: CC[C@@H](C)[C@@H](NC(=O)[C@@H](CCCNC(=N)N)NC(=O)[C@@H](CCCNC(=N)N)NC(=O)[C@@H](CCCNC(=N)N)NC(=O)[C@@H](Cc1c[nH]c2ccccc12)NC(C)=O)C(=O)N[C@H](CCCNC(=N)N)C(N)=O

biological target: recombinant truncated mouse furin (mouse) (UniProt P23188); test: enzyme inhibition, pERTKR-MCA hydrolysis (fluorescence), competitive Ki
Sequence (P23188 108-714): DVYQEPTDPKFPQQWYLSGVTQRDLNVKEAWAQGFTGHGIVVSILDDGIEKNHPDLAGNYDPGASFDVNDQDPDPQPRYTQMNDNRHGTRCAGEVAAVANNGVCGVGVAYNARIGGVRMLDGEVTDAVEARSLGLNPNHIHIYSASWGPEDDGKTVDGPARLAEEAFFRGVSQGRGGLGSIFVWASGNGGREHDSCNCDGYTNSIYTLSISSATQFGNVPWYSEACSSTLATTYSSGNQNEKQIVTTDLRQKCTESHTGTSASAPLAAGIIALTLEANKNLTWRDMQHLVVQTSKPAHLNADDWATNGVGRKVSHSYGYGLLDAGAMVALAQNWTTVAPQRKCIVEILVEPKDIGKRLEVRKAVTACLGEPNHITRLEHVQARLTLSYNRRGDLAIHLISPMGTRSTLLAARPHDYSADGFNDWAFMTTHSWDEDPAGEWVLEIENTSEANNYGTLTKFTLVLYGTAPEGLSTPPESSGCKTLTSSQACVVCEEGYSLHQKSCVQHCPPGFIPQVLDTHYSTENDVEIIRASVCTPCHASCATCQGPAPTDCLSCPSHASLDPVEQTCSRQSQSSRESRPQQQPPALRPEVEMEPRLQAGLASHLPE

Row | Ki [µM] | Binder
1 | 2.4 | B1
2 | 22.7 | B2
3 | 5.3 | B3
4 | 7 | B4

biological target: proprotein convertase PC2; test: as above
Sequence (P21661 109-637): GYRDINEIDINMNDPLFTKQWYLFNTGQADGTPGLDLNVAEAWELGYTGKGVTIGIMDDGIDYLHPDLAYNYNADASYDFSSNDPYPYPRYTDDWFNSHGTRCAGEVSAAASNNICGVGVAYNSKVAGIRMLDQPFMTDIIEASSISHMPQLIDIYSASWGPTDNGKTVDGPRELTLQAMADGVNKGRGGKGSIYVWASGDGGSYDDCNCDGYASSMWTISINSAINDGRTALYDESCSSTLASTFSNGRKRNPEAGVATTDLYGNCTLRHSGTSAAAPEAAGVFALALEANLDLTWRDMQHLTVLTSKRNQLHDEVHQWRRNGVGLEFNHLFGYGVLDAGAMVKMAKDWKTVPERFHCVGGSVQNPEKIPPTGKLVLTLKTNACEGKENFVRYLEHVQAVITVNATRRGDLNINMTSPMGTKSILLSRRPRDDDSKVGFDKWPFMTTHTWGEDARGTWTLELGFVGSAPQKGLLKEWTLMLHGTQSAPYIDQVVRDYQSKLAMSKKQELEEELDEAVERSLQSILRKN

Row | Ki [µM] | Binder
5 | 334 | B1
6 | 601 | B2
7 | 203 | B3
8 | 399 | B4
